Residue numbers refer to the chain shown, from its start. Read-outs that look alike come from different tables or passages of the source.

The target of experiment [1] is T1, soluble human IL-6 receptor (human, UniProt P08887 20-357).
T1 construct: also called hsIL-6R
T1 sequence: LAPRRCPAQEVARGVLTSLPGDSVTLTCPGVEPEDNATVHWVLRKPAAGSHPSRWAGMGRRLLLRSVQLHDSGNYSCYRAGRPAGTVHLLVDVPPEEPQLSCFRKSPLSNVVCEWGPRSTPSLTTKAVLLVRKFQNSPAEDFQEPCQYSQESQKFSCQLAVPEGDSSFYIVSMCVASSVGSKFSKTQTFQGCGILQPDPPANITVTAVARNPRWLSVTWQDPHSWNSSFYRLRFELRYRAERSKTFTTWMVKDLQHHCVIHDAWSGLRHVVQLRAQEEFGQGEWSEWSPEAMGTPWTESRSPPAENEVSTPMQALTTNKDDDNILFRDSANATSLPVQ
Kind of experiment: SPR 37C, 3 µM Ca, estimated from Req.

Experiment [2] deals with T1, soluble human IL-6 receptor. Briefly: SPR 37C, 3 µM CaCl2.
Experiment [3] concerns the target T2, human FcRn (soluble, complexed with β2-microglobulin) (human, UniProt P61769 21-119). Briefly: SPR pH7.0.
The target of experiment [4] is T2, human FcRn (soluble, complexed with …). Kind of experiment: SPR pH7.0. The source holds these as a separate data set.
Experiment [5] addresses T3, mouse FcγRIIb (mouse, UniProt P08101 40-217, limits assumed).
T3 construct: bought; also called mFcgRIIb; mFcgRII
T3 sequence (looked up): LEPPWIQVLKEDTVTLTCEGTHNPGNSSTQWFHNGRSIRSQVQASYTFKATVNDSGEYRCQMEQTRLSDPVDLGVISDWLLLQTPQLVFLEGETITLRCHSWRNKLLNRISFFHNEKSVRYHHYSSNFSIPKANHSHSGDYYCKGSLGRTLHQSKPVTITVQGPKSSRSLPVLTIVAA
Kind of experiment: SPR pH7.4.

Experiment [6] has as its target T4, mouse FcγRIII (mouse, UniProt P08508 31-215).
T4 construct: bought; also called mFcgRIII
T4 sequence (looked up): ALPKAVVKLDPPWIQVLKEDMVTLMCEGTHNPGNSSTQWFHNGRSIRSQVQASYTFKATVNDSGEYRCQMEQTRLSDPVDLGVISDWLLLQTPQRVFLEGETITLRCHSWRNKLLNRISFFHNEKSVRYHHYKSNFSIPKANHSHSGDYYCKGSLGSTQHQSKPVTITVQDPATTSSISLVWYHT
Kind of experiment: SPR pH7.4.

The target of experiment [7] is T5, mouse FcγRIV (mouse, UniProt A0A0B4J1G0 21-203).
T5 construct: bought; also called mFcgRIV
T5 sequence: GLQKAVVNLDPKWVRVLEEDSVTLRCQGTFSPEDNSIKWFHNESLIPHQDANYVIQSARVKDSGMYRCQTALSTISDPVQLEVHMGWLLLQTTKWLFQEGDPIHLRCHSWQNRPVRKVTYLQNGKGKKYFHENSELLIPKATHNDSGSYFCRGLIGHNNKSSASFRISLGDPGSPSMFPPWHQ
Kind of experiment: SPR pH7.4.

Experiment [8] addresses T6, mouse FcγRI (mouse, UniProt P26151 25-297).
T6 construct: bought; also called mFcgRI
T6 sequence (looked up): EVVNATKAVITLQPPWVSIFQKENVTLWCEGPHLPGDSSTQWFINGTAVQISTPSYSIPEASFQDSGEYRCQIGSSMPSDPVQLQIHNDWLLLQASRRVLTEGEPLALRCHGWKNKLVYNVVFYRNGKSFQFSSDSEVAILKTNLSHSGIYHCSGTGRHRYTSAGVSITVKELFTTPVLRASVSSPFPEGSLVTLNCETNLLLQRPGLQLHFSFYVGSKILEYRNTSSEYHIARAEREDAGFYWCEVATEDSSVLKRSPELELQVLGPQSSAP
Briefly: SPR pH7.4.

In experiment [9] the target is T2, human FcRn (soluble, complexed with …). Kind of experiment: SPR pH7.0. This is another data set of the same source.
Experiment [10] shares this target. Briefly: SPR pH7.0. This is another data set of the same source.
The target is the same in experiment [11]. Briefly: SPR pH7.0. This is another data set of the same source.
Experiment [12] has the same target. Kind of experiment: SPR pH7.0. The source holds these as a separate data set.
For experiment [13], the target named is T3, mouse FcγRIIb. Kind of experiment: SPR pH7.4. This is another data set of the same source.
For experiment [14], the target named is T4, mouse FcγRIII. Briefly: SPR pH7.4. The source holds these as a separate data set.
For experiment [15], the target named is T5, mouse FcγRIV. Kind of experiment: SPR pH7.4. The source holds these as a separate data set.
Experiment [16] has as its target T6, mouse FcγRI. Kind of experiment: SPR pH7.4. This is another data set of the same source.
Experiment [17] deals with T2, human FcRn (soluble, complexed with …). Kind of experiment: SPR pH7.0. This is another data set of the same source.
For experiment [18] the target is unchanged. Kind of experiment: SPR pH7.0. This is another data set of the same source.
The target is the same in experiment [19]. Kind of experiment: SPR pH7.0. This is another data set of the same source.
Experiment [20] shares this target. Briefly: SPR pH7.0. The source holds these as a separate data set.
Experiment [21] shares this target. Kind of experiment: SPR pH7.0. The source holds these as a separate data set.

T2 sequence (P61769 21-119, one chain of several): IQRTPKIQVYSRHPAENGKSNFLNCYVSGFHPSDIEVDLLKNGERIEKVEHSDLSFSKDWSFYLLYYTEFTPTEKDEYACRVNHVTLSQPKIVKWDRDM

B1: 6RL#9-IgG1 (antibody, V domains shown)
VH: QVQLVQSGAEVKKPGASVKVSCKASGYTFTSYYMHWVRQAPGQGLEWMGIINPSGGSTSYAQKFQGRVTMTRDTSTSTVYMELSSLRSEDTAVYYCARDDPGGGEYYFDYWGQGTLVTVSS
VL: QSVLTQPPSVSGAPGQRVTISCTGSRSNMGAGYDVHWYQLLPGAAPKLLISHNTHRPSGVPDRFSGSKSGASASLAITGLQAEDEADYYCQSHDSSLSAVVFGGGTKLTVLS
In general, Kd refers to the concentration at which binding is half-saturated. For the molecule B1, the Kd in experiment [1] was about 31000 nM; in experiment [2], at least 31000 nM.

B2: VH3/L(WT)-IgG1-F21 (antibody)
chain 1: QVQLQESGPGLVKPSETLSLTCAVSGHSISHDHAWSWVRQPPGEGLEWIGFISYSGITNYNPSLQGRVTISRDNSKNTLYLQMNSLRAEDTAVYYCARSLARTTAMDYWGEGTLVTVSSASTKGPSVFPLAPSSKSTSGGTAALGCLVKDYFPEPVTVSWNSGALTSGVHTFPAVLQSSGLYSLSSVVTVPSSSLGTQTYICNVNHKPSNTKVDKKVEPKSCDKTHTCPPCPAPELLGGPSVFLFPPKPKDTLYISRTPEVTCVVVDVSHEDPEVKFNWYVDGVEVHNAKTKPREEQYNSTYRVVSVLTPLHQDWLNGKEYKCKVSNKALPAPIEKTISKAKGQPREPQVYTLPPSRDELTKNQVSLTCLVKGFYPSDIAVEWESNGQPENNYKTTPPVLDSDGSFFLYSKLTVDKSRWQQGNVFSCSVMHEALHYHYTQKSLSLSP
chain 2: not shown
For B2, the Kd in experiment [3], in [4] and in experiment [9] was 30 nM in each case. For the same molecule, the binding amount with mouse FcγRIIb [5] was 112 RU; with mouse FcγRIII [6] it was 371 RU; with mouse FcγRIV [7], 242 RU; in the experiment with mouse FcγRI [8] it was 315 RU.

B3: VH3/L(WT)-IgG1-F424 (antibody)
chain 1: B2 chain 1 with S241K, Y254M, P259A, M430L
chain 2: not shown
With B3, the Kd in experiment [10] and in experiment [9] was 94 nM throughout. Besides, the binding amount with mouse FcγRIIb [5] is -2.5 RU; with mouse FcγRIV [7], 138 RU.

B4: VH3/L(WT)-IgG1-F890 (antibody)
chain 1: B2 chain 1 with P310V, Y438V
chain 2: not shown
With B4, the Kd in [11] was 110 nM; in [12], 110 nM; in experiment [17], 107 nM. The binding amount came out at 69.3 RU with mouse FcγRIIb [13], 284 RU with mouse FcγRIII [14], 230 RU with mouse FcγRIV [15] and 268 RU with mouse FcγRI [16].

B5: VH3/L(WT)-IgG1-F821 (antibody)
chain 1: B2 chain 1 with L237R, S241K, P310V
chain 2: not shown
Take B5: the Kd in [12] and in experiment [18] was 310 nM in each case. The binding amount with mouse FcγRIIb [13] is -4.5 RU; in the experiment with mouse FcγRIII [14], -20.3 RU; with mouse FcγRIV [15], -3.8 RU; with mouse FcγRI [16] it was 0.6 RU.

B6: VH3/L(WT)-IgG1-F1009 (antibody)
chain 1: B2 chain 1 with L237R, S241K, T252V, T309Q, Q313A, Y438V
chain 2: not shown
Turning to B6, the Kd in experiment [19], in experiment [12] and in experiment [17] was 12 nM each time. The binding amount was -1.5 RU with mouse FcγRIIb [13], -12.9 RU in the experiment with mouse FcγRIII [14], 7.2 RU with mouse FcγRIV [15] and 0.6 RU with mouse FcγRI [16].

B7: VH3/L(WT)-IgG1-F157 (antibody)
chain 1: B2 chain 1 with Y254M, P259A, M430L
chain 2: not shown
Consider B7, for which the Kd in experiment [20] and in [9] was 150 nM throughout. In addition, the binding amount in the experiment with mouse FcγRIIb [5] stood at 129 RU; in the experiment with mouse FcγRIII [6], 276 RU; in the experiment with mouse FcγRIV [7], 243 RU; with mouse FcγRI [8], 315 RU.

B8: VH3/L(WT)-IgG1-F939 (antibody)
chain 1: B2 chain 1 with L237R, S241K, P310V, Y438V
chain 2: not shown
For B8, the Kd in [12] was 150 nM; in experiment [21], 150 nM; in experiment [17], 153 nM. Besides, the binding amount is -6.3 RU with mouse FcγRIIb [13], -24.9 RU with mouse FcγRIII [14], -7.3 RU with mouse FcγRIV [15] and -2 RU with mouse FcγRI [16].

B9: VH3/L(WT)-IgG1-F140 (antibody)
chain 1: B2 chain 1 with S241K
chain 2: not shown
Take B9: the Kd in experiment [3], in [20] and in [9] was 36 nM throughout. The figures for the binding amount with mouse FcγRIIb [5], in the experiment with mouse FcγRIII [6] and in the experiment with mouse FcγRIV [7] were -1.8 RU, 46.6 RU and 108 RU, respectively.

B10: FH4-IgG1 (antibody, V domains shown)
VH: QVQLVQSGAEVKKPGSSVKVSCKASGGTFSSYAISWVRQAPGQGLEWMGGIIPIFGTANYAQKFQGRVTITADESTSTAYMELSSLRSEDTAVYYCARERDYYDSSGYYDAFDIWGQGTMVTVSS
VL: ETTVTQSPSFLSASVGDRVTITCITTTDIDDDMNWFQQEPGKAPKLLISEGNILRPGVPSRFSSSGYGTDFTLTISKLQPEDFATYYCLQSDNLPFTFGQGTKLEIKR
Turning to B10, the Kd in experiment [1] was about 34000 nM; in experiment [2] it was at least 34000 nM.

Source of the values: patent EP2698431B1 (Chugai Seiyaku Kabushiki Kaisha, dated 2020).
